According to the Human Domainome abundance scans (Beltran et al. 2025):

B1: Chromodomain-helicase-DNA-binding protein 4, residues 444 to 496; numbered along this chain, Q14839 (parent)
chain: EDDHHMEFCRVCKDGGELLCCDTCPSSYHIHCLNPPLPEIPNGEWLCPRCTCP

Variants of: B1
Assay: abundance fitness (aPCA) (normalised: wild type 0, dead -1); higher = more abundant; growth selection in yeast, the domain comes from the species named
Conditions: Homo sapiens

Abundance fitness of substitutions, site by site:
I30: M 0.026 | A -0.003 | E -0.072 | D -0.473 | T -0.044 | K -0.047 | V 0.005 | G -0.115 | N -0.072 | H -0.106 | Q -0.159 | Y -0.102 | L -0.023 | R -0.016 | W -0.238 | F -0.037 | C -0.108 | S -0.018
T23: Q -0.07 | C -0.074 | V -0.075 | P -0.738 | M -0.077 | A -0.119 | H -0.107 | K -0.031 | R 0.038 | N 0.093 | D -0.305 | W -0.2 | L -0.195 | S -0.044 | I -0.042 | Y -0.084 | F -0.221 | E 0.047
S27: A 0.067 | Q -0.064 | N -0.026 | F -0.177 | P -0.572 | K -0.082 | Y 0.029 | V -0.057 | D -0.705 | H -0.068 | W -0.198 | G -0.22 | M -0.14 | R 0.016 | E -0.472 | I -0.394 | C -0.018 | T -0.044
C24: G -0.894 | T -0.862 | N -0.881 | P -0.819 | S -0.788 | E -1.09 | F -1.01 | H -0.909 | V -0.617 | K -0.702 | L -0.816 | R -0.629 | W -0.905 | A -0.739 | Y -0.696 | I -0.706 | M -0.944 | Q -0.907
S26: C -0.05 | K -0.324 | G 0.029 | H 0.021 | P -0.625 | F -0.039 | N -0.073 | E 0.015 | Y -0.103 | M 0.132 | R 0.003 | V -0.132 | Q 0.08 | A 0.104 | W -0.11 | L -0.088
P25: C -0.087 | Q -0.209 | I -0.15 | S -0.1 | G -0.106 | M -0.167 | V -0.18 | H -0.024 | L -0.163 | F -0.167 | K -0.078 | N -0.303 | R 0.032 | D -0.172 | W -0.061 | E -0.28 | A -0.124
Y28: C -0.639 | Q -0.657 | M -0.656 | H -0.54 | V -0.471 | S -0.566 | T -0.531 | E -0.64 | F 0.015 | L -0.712 | G -0.605 | W -0.259 | N -0.528 | P -0.667 | A -0.574 | K -0.833
C32: F -1.02 | N -1.15 | K -0.933 | D -0.68 | L -0.99 | A -0.882 | I -0.898 | M -1 | P -0.937 | E -0.66
H29: F -0.918 | W -1.1 | A -0.748 | S -0.728 | Q -0.833 | R -0.97 | V -1.06 | N -0.556 | M -0.998 | T -0.921 | D -0.811 | L -0.983 | Y -0.787 | P -0.814 | E -0.804 | I -0.822 | C -0.317
H31: M -0.063 | S -0.203 | Q -0.042 | K 0.035 | P -0.354 | A -0.138 | F 0.017 | V -0.068 | C -0.046 | Y -0.097 | R -0.042 | W -0.285 | N 0.106 | D -0.197 | I -0.217 | T -0.042 | G 0.002 | E -0.046 | L -0.194
